How the values were obtained:
FLAG-AICD, P05067 = biological target: T1, FLAG-AICD, P05067
T1 chain: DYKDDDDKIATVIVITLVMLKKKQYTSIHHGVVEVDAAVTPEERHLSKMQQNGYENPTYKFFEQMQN

B1: NEDL-1 protein (protein)
chain: MASPSRNSQSRRRCKEPLRYSYNPDQFHNMDLRGGPHDGVTIPRSTSDTDLVTSDSRSTLMVSSSYYSIGHSQDLVIHWDIKEEVDAGDWIGMYLIDEVLSENFLDYKNRGVNGSHRGQIIWKIDASSYFVEPETKICFKYYHGVSGALRATTPSVTVKNSAAPIFKSIGADETVQGQGSRRLISFSLSDFQAMGLKKGMFFNPDPYLKISIQPGKHSIFPALPHHGQERRSKIIGNTVNPIWQAEQFSFVSLPTDVLEIEVKDKFAKSRPIIKRFLGKLSMPVQRLLERHAIGDRVVSYTLGRRLPTDHVSGQLQFRFEITSSIHPDDEEISLSTEPESAQIQDSPMNNLMESGSGEPRSEAPESSESWKPEQLGEGSVPDRPGNQSIELSRPAEEAAVITEAGDQGMVSVGPEGAGELLAQVQKDIQPAPSAEELAEQLDLGEEASALLLEDGEAPASTKEEPLEEEATTQSRAGREEEEKEQEEEGDVSTLEQGEGRLQLRASVKRKSRPCSLPVSELETVIASACGDPETPRTHYIRIHTLLHSMPSAQGGSAAEEEDGAEEESTLKDSSEKDGLSEVDTVAADPSALEEDREEPEGATPGTAHPGHSGGHFPSLANGAAQDGDTHPSTGSESDSSPRQGGDHSCEGCDASCCSPSCYSSSCYSTSCYSSSCYSASCYSPSCYNGNRFASHTRFSSVDSAKISESTVFSSQDDEEEENSAFESVPDSMQSPELDPESTNGAGPWQDELAAPSGHVERSPEGLESPVAGPSNRREGECPILHNSQPVSQLPSLRPEHHHYPTIDEPLPPNWEARIDSHGRVFYVDHVNRTTTWQRPTAAATPDGMRRSGSIQQMEQLNRRYQNIQRTIATERSEEDSGSQSCEQAPAGGGGGGGSDSEAESSQSSLDLRREGSLSPVNSQKITLLLQSPAVKFITNPEFFTVLHANYSAYRVFTSSTCLKHMILKVRRDARNFERYQHNRDLVNFINMFADTRLELPRGWEIKTDQQGKSFFVDHNSRATTFIDPRIPLQNGRLPNHLTHRQHLQRLRSYSAGEASEVSRNRGASLLARPGHSLVAAIRSQHQHESLPLAYNDKIVAFLRQPNIFEMLQERQPSLARNHTLREKIHYIRTEGNHGLEKLSCDADLVILLSLFEEEIMSYVPLQAAFHPGYSFSPRCSPCSSPQNSPGLQRASARAPSPYRRDFEAKLRNFYRKLEAKGFGQGPGKIKLIIRRDHLLEGTFNQVMAYSRKELQRNKLYVTFVGEEGLDYSGPSREFFFLLSQELFNPYYGLFEYSANDTYTVQISPMSAFVENHLEWFRFSGRILGLALIHQYLLDAFFTRPFYKALLRLPCDLSDLEYLDEEFHQSLQWMKDNNITDILDLTFTVNEEVFGQVTERELKSGGANTQVTEKNKKEYIERMVKWRVERGVVQQTEALVRGFYEVVDSRLVSVFDARELELVIAGTAEIDLNDWRNNTEYRGGYHDGHLVIRWFWAAVERFNNEQRLRLLQFVTGTSSVPYEGFAALRGSNGLRRFCIEKWGKITSLPRAHTCFNRLDLPPYPSYSMLYEKLLTAVEETSTFGLE
ubiquitination (bands increasing by about 9 kD detected with anti-ubiquitin antibody) (FLAG-AICD, P05067): It is understood that ACID alone is subjected to ubiquitination by NEDL-1.
ubiquitination (immunoprecipitation with FLAG, blotting with anti-ubiquitin antibody, FIG. 13) (SOD1 mutants): the degree of ubiquitination drastically increases in the presence of NEDL-1

Source: patent US20050064411
